Source: patent US20260028418A1 (GC CELL, published 2026)

T1: HER4 (R&D Systems, #1131-ER-050) (human, UniProt Q15303 26-651)
T1 construct: extracellular domain; Bought
T1 sequence (looked up): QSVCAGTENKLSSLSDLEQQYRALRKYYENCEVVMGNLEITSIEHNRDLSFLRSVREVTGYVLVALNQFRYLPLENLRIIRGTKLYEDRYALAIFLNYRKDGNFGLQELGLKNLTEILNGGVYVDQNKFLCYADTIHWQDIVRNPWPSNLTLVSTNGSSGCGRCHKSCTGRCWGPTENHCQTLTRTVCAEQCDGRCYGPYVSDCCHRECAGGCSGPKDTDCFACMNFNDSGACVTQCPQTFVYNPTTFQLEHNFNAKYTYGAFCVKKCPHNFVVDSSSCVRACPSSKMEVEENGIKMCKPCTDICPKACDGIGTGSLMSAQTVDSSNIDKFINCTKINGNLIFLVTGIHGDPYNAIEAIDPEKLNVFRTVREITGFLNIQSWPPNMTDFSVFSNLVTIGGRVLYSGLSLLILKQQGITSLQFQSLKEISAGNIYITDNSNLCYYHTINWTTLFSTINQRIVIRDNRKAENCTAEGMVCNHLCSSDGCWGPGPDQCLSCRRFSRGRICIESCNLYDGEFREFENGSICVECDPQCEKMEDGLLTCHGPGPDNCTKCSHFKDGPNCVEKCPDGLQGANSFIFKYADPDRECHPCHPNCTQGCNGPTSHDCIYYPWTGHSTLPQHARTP

B1: hz39D2 (antibody, V domains shown)
VH: QVQLVQSGSELKKPGASVKVSCKASGYTFTNYGVNWVRQAPGQGLEWMGWINTHTGEPTYAEEFKGRFVFSLDTSVSTAYLQISSLKAEDTAVYYCARDDYYVRVDYWGQGTTVTVSS
VL: DIQMTQSPSSLSASVGDRVTITCKASQDINSYLSWFQQKPGKAPKTLIYRANRLVDGVPSRFSGSGSGQDYTLTISSLQPEDFATYYCLQYDEFPWTFGQGTKVEIK
notes: Humanized antibody, captured as IgG by anti-human IgG in SPR; also called humanized 39D2 antibody
B2: 24D3 (antibody, V domains shown)
VH: EVKLVESGGGLVKPGGSLKLSCAASGFTFSSCAMSWVRQTPEKRLEWVATISGGGSYTYYPDSVKGRFTISRDNAKNTLYLQMSSLRSEDTAMYYCARHGGYESWFPYWGQGTLVTVSA
VL: DIVMTQSPLSLPVSLGDQASISCRSSQSLVHSNGNTYLHWYLQKPGQSPKLLIYKVSNRFSGVPDRFSGSGSGTDFTLKISRVEAEDLGVYFCSQSTHVPPWTFGGGTKLEIK
B3: 1G3 (antibody, V domains shown)
VH: EVQLQQSGAELVKPGASVKLSCTASDFNIVDTYMHWVKQRPEQGLEWIGRIDPANGYTRYDPNFQGKATITADTSSNTAYLQLSSLTSEDTAVYYCARYYYGFYAMDYWGQGTTVTVSS
VL: DIVMTQSHKFMSTSVGDRVSITCKASQDVSTAVAWYQQKPGQSPKLLIYSASYRYTGVPDRFTGSGSGTDFTFTISSVQAEDLAVYYCQQHYSTPPTFGGGTKLELK
B4: hz2G10 (antibody, V domains shown)
VH: EVQLVESGGGLVQPGGSLRLSCAASGFTFSDYYMYWVRQAPGKGLEWVAYINSGGGSTYYPDTVKGRFTISRDNAKNSLYLQMNSLRAEDTAVYYCAREALYDYDYAMDYWGQGTTVTVSS
VL: DIVMTQSPLSLSVTPGQPASISCKSSQSLLYSNGKTYLNWLLQKPGQSPQRLIYLVSKLDSGVPDRFSGSGSGTDFTLKISRVEAEDVGVYYCVQGTHFPLTFGGGTKVEIK
notes: Humanized antibody, detected with anti-human IgG-HRP; Only the variable domains are tied to the name; also called humanized 2G10 antibody
B5: hz8G11 (antibody, V domains shown)
VH: QVQLVQSGQEVKKPGASVKVSCKASGYSFTGYYMHWVRQAPGQGLEWIGHINPNNGGTSYNQKFKGRTTLTVDKSISTAYMELSRLRSDDTAVYYCAREEAFAYWGQGTLVTVSS
VL: DIQMTQSPSSLSASVGDRVTISCRASQDISNYLNWYQQKPGKAPKLLIYYTSRLHSGVPSRFSGSGSGTDFSLTISSLQPEDIATYYCQQGITPPWTFGGGTKVEIK
notes: Humanized antibody, detected with anti-human IgG-HRP; also called humanized 8G11 antibody

Experiments:
HER2-ECD-Fc [1] = target: T2, HER2-ECD-Fc (human, UniProt P04626 23-652); assay: ELISA on HER2-ECD-Fc; antibody at 5 × 10^-7 µg/mL
T2 construct: extracellular domain; Produced in FreeStyle 293F cells; also called HER2-ECD Fc fusion protein

HER2-ECD-Fc [2] = target: T2, HER2-ECD-Fc; assay: ELISA on HER2-ECD-Fc; antibody at 5 × 10^-2 µg/mL
HER2-ECD-Fc [3] = target: T2, HER2-ECD-Fc; assay: ELISA on HER2-ECD-Fc; antibody at 5 × 10^-4 µg/mL
HER2-ECD-Fc [4] = target: T2, HER2-ECD-Fc; assay: ELISA on HER2-ECD-Fc; antibody at 5 × 10^-6 µg/mL
HER2-ECD-Fc [5] = target: T2, HER2-ECD-Fc; assay: ELISA on HER2-ECD-Fc; antibody at 5 × 10^-3 µg/mL
HER2-ECD-Fc [6] = target: T2, HER2-ECD-Fc; assay: ELISA on HER2-ECD-Fc; antibody at 5 µg/mL
HER2-ECD-Fc [7] = target: T2, HER2-ECD-Fc; assay: ELISA on HER2-ECD-Fc; antibody at 5 × 10^-5 µg/mL
[8] = target: T3, HER3 (R&D Systems, #348-RB-050) (human, UniProt P21860 20-643); assay: ELISA on ErbB family extracellular domains, Absorbance at 450 nm; antibody concentration not given
T3 construct: extracellular domain; Bought
Text: (§1) It was investigated whether the developed five antibodies of the present disclosure specifically bind to HER2 belonging to the ErbB family proteins by ELISA.

EGFR-ECD-Fc = target: T4, EGFR-ECD-Fc (human, UniProt P00533 25-645); assay: as above
T4 construct: extracellular domain; also called extracellular domain of EGFR; not shown: Hinge and Fc region (CH2-CH3) of human IgG1; The protein was produced in the same manner as HER2-ECD-Fc
Text: as §1

[9] = target: T1, HER4 (R&D Systems, #1131-ER-050); assay: as above
Text: as §1

HER2-ECD-His = target: T5, HER2-ECD-His (human, UniProt P04626 23-652); assay: SPR (Biacore, CM5), IgG captured by anti-human IgG, HER2-ECD-His as analyte
T5 construct: extracellular domain; also called HER2-His; HER2-ECD-His protein; not shown: His tag
Method: 2000 RU of goat anti-human IgG (Invitrogen, #H10500) was immobilized onto a CM5 sensor chip by […]. Then, the antibodies were allowed to bind at a rate of 50 μL/min for 5 minutes and then stabilized for 5 minutes by flowing a buffer. After stabilizing the antibodies, the HER2-ECD-His protein was allowed to bind at a rate of 50 μL/min for 4 minutes and then separated by flowing a buffer for 15 minutes. After analyzing the concentration, the resultant was recycled using 10 mM glycine (pH 1.5) and then subjected to the subsequent assay. The affinity of the antibodies was analyzed using the BIAevaluation software.

HER2-ECD-Fc [10] = target: T2, HER2-ECD-Fc; assay: ELISA on HER2-ECD-Fc; antibody at 5 × 10^-1 µg/mL
HER2-ECD DIII Fc = target: T6, HER2-ECD DIII Fc (human, UniProt P04626 342-510, limits assumed); assay: ELISA on plate-coated HER2 domain-Fc fusion (1 µg/mL), anti-human IgG-HRP, Abs 450 nm; antibody concentration not given
T6 construct: domain: domain 3; also called domain 3 of the extracellular domains of the HER2 protein; not shown: Hinge and Fc region (CH2-CH3) of human IgG1, at the C-terminus
Method: (§2) The HER2-ECD DI Fc, HER2-ECD DII Fc, HER2-ECD DIII Fc, HER2-ECD DIV Fc and HER2-ECD Fc fusion proteins were immobilized at 4° C. overnight onto a Costar 96-well plate (Corning, Cat. No. 3590) at a concentration of 1 μg/mL […]. The resultant was washed 3 times with TBS-T (0.05% Triton X-100) and then blocked at room temperature for 1 hour with 100 μL of TBS-T/BSA (5% BSA). After washing the blocked plate 3 times and adding the anti-HER2 antibody, the antibody was allowed to bind at room temperature for 1 hour. After washing 3 times and then adding anti-human IgG-HRP diluted to 1:3,000 in TBS-T/BSA, as a secondary antibody, the antibody was allowed to bind at room temperature for 1 hour. After washing the resultant 3 times and adding TMB (SurModics, Cat. No. TMBC-1000-01), the mixture was allowed to develop color at room temperature for 5 minutes. Then, the color development was stopped by adding 1 N sulfuric acid (DukSan, Cat. No. 254). Absorbance was measured at 450 nm using Victor X3 (PerkinElmer, Cat. No. 2030-0030).

HER2-ECD-Fc [11] = target: T2, HER2-ECD-Fc; assay: ELISA on HER2-ECD-Fc; antibody at 50 µg/mL
HER2-ECD DI Fc = target: T7, HER2-ECD DI Fc (human, UniProt P04626 23-217, limits assumed); assay: ELISA on plate-coated HER2 domain-Fc fusion (1 µg/mL), anti-human IgG-HRP, Abs 450 nm; antibody concentration not given
T7 construct: domain: domain 1; also called domain 1 of the extracellular domains of the HER2 protein; not shown: Hinge and Fc region (CH2-CH3) of human IgG1, at the C-terminus
Method: as §2

Binder | absorbance (HER2-ECD-Fc [1]) | absorbance (HER2-ECD-Fc [2]) | absorbance (HER2-ECD-Fc [3]) | absorbance (HER2-ECD-Fc [4]) | absorbance (HER2-ECD-Fc [5]) | absorbance (HER2-ECD-Fc [6]) | absorbance (HER2-ECD-Fc [7]) | binding result [8] | binding result (EGFR-ECD-Fc) | binding result [9] | Kd (HER2-ECD-His) [nM] | koff (HER2-ECD-His) [s⁻¹] | kon (HER2-ECD-His) [M⁻¹ s⁻¹] | absorbance (HER2-ECD-Fc [10]) | binding result (HER2-ECD DIII Fc) | absorbance (HER2-ECD-Fc [11]) | binding result (HER2-ECD DI Fc)
B1 | 0.12 | 2.92 | 0.47 | 0.12 | 2.29 | 2.9 | 0.15 | no binding | no binding | no binding | 37 | 0.0025 | 68000 | 2.78 | no binding | 2.83 | –
B2 | 0.11 | 2.76 | 0.22 | 0.11 | 1.13 | 2.92 | 0.12 | no binding | no binding | no binding | – | – | – | 2.9 | – | 2.75 | no binding
B3 | 0.11 | 2.79 | 0.35 | 0.11 | 1.77 | 2.81 | 0.14 | no binding | no binding | no binding | – | – | – | 2.78 | no binding | 2.76 | no binding
B4 | 0.12 | 1.16 | 0.12 | 0.12 | 0.22 | 2.79 | 0.12 | no binding | no binding | no binding | – | – | – | 2.69 | no binding | 2.81 | –
B5 | 0.12 | 2.72 | 0.34 | 0.12 | 1.67 | 2.9 | 0.14 | no binding | no binding | no binding | – | – | – | 2.94 | no binding | 2.74 | no binding
